We go through 2 molecules from patent publication US20140336127A1, “Stabilized Peptide Helices For Inhibiting Dimerization Of Chemokine C Motif Receptor 2 (CCR2)” (Yissum Research Development Company of the Hebrew …, priority 2012, published 2014).

Starred links: 1 amine or outer side, 2 acyl side, 3 side chain; linkers in the order of their positions; H or OH if unused. Positions of bridges follow the written chain, without caps; N, C: chain ends. Non-standard residues stand in square brackets, D forms with d. Residues, ends and D or L forms follow the SMILES beside them. No end group written: not given here. BU = not defined here; CO = O=C([*:1])[*:2]

The target in one series is T1, CXCR4 (Homo sapiens, UniProt P61073).
T1 construct: endogenous in cells; host or cells: THP-1 (inferred; b171 says only 'cells')
T1 sequence (P61073 whole entry): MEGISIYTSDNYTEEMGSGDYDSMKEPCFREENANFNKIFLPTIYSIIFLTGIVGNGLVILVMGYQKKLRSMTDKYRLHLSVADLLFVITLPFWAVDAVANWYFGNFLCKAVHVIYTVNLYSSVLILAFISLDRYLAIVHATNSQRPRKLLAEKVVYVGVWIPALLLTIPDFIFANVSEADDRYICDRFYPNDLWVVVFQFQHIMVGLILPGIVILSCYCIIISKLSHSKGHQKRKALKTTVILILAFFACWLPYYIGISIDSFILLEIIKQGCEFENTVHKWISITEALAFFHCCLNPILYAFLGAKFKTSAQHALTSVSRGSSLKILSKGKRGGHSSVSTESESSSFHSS
The experiment in a line: transwell migration assay, SDF-1 (CXCL12) induced migration. It counts as cell-based. As to conditions: cells migrating towards SDF-1; FIG. 7 crosshatch. From the text: (§1) The simple transwell migration assay (Mandelboim, O. Protocol Exchange (2006) doi:10.1038/nprot.2006.210) was used for evaluating the chemotactic migration in the presence of M3D-1. M3D-1 inhibited THP-1 cells migration towards MCP-1 (FIG. 7 stripes).
SDF-1 is known to have strong chemotactic effects following specific interaction with the receptor CXCR4 (Bleul et al., ibid).

The target of a further series is T2, CCR2 (Homo sapiens, UniProt P41597).
T2 construct: endogenous in cells; host or cells: THP-1
T2 sequence (P41597 1-360 isoform P41597-2): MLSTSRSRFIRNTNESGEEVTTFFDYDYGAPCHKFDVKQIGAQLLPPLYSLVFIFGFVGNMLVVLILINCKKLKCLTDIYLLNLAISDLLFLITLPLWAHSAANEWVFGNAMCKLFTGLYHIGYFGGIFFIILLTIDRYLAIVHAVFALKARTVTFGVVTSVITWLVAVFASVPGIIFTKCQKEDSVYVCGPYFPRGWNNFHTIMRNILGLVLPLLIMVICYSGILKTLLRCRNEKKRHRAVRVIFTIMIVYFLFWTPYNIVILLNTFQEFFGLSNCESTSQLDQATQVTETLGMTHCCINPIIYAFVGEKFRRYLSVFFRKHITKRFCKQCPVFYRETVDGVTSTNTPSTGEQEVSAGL
The experiment in a line: transwell migration assay with MCP-1 as chemoattractant (THP-1 cells). The series is classed as cell-based. As for the experimental part:
A transwell migration assay (Bignold, L. P., J Immunol Methods 1987, 105, (2), 275-80) was performed using MCP-1 as a chemoattractant. The chemokine MCP-1 reacts only with the chemokine receptors CCR2 and CCR4. […] In this experiment, THP-1 cells were placed in the upper well of the trans-migration plate and specific migration was induced by placing MCP-1 in the lower well. The cells were allowed to migrate spontaneously or toward the chemokine, and counted after migration. To evaluate the effect of hCCR2b(61-67) on MCP-1-induced migration, the peptide (10 μM) was incubated with the cells and the number of migrating cells in the lower wells were determined.
as §1

The test system of a further series is THP-1 cells. The experiment in a line: spontaneous migration of THP-1 cells without additional chemokines. As to conditions: FIG. 7 dots. The series is classed as cell-based, human. As for the experimental part: THP-1 cells spontaneous migration was evaluated without additional chemokines.
Another series deals with intestinal peptidases. The experiment in a line: metabolic stability BBMV assay (degradation by intestinal peptidases). It counts as in vitro ADME, rat. As to conditions: 37° C. As for the experimental part:
The enzymatic reaction is performed similar to what described in Ovadia et al. (2009, Bioorg Med Chem 18, 580-589): 2 mM stock solutions of the tested compounds are diluted with serum or purified brush border membrane vesicles (BBMVs) solution to a final concentration of 0.5 mM. During incubation at 37° C. samples are taken for a period of 90 minutes. The enzymatic reaction is stopped by adding 1:1 v/v of ice cold acetonitrile and centrifuge (4000 g, 10 min) before analysis.
The BBMVs are prepared from combined duodenum, jejunum, and upper ileum (male Wistar rats) by a Ca++ precipitation method (Gante, J., Angew Chem Int Edit 1994, 33, (17), 1699-1720; Hess et al., ibid). Purification of the BBMVs is assayed using GGT, LAP and alkaline phosphatase as membrane enzyme markers.
M3D-1 was tested for metabolic stability to degradation by intestinal peptidases using the BBMV assay described above. The linear CCR2b(61-67) peptide was used as a control.

For the next series, the system named is cells. The series is described as follows: in vitro cytotoxicity assay. It counts as cell-based.

For the molecule “M-L-V-BU-L-I-BU-NH2 (MLV[BU]LI[BU]-NH2; bridge 4-7 via CO; reading uncertain; also: printed as M-L-V-BU-L-I-BU-NH2) [M3D-1]”, in the series with CXCR4, the “inhibition of SDF-1 induced migration” value is given as “no significant inhibition”. For the same molecule, the “inhibition of MCP-1-mediated migration” value in the series with CCR2 (THP-1 cells migrating towards MCP-1, concentration not given, FIG. 2 / FIG. 7) is listed as “inhibited”. The “concentration range blocking specific CCR2 chemokine mediated cell migration” value with CCR2 (summary statement in the description) is reported as “low micro-molar range”. For the same molecule, the “number of cells that migrate in the absence of chemokine, with or without peptide” value in the series on THP-1 cells is “no significant difference”. Further, in the series with intestinal peptidases (FIG. 9), the “time stable to degradation by intestinal peptidases” value was “at least 3 hours”. In the series with cells, the toxicity to cells result is recorded as “not toxic to cells”.
Turning to `CC[C@H](C)[C@H](NC(=O)[C@H](CC(C)C)NC(=O)[C@@H](NC(=O)[C@@H](NC(=O)[C@H](CC(C)C)NC(=O)[C@@H](N)CCSC)C(C)C)C(C)C)C(=O)N[C@@H](CC(C)C)C(=O)O` [hCCR2b(61-67), MLVVLIL] (H-MLVVLIL-OH; N-terminus and C-terminus assumed), the “degradation by intestinal peptidases” value with intestinal peptidases (FIG. 9, linear control peptide) is on record as “completed degraded after about one hour”.
